Patent US20090291081A1 (AbbVie / Abbott, published 2009)
Where a chain is given by its changes, count along the chain named. Several values for one entry are separate records, joined by “and”; a condition that tells them apart may be missing. Equal entries are not always repeated. Where two headings read alike, the source gives them in different places. Blank lines part the entries; values can stand above or below the binder they belong to.

Legend:
[1] = molecular target: T1, human IL-1β (human, UniProt P01584 117-269); experiment: cell-based or functional assay
[2] = molecular target: T1, human IL-1β; experiment: BIAcore kinetic analysis of the dAb
[3] = molecular target: T2, human IL-1α (human, UniProt P01583 113-271); experiment: BIAcore, IL-1α coated chip, dAb flowed over
T2 construct: also called hIL-1α; rhIL-1 alpha
T2 sequence (looked up): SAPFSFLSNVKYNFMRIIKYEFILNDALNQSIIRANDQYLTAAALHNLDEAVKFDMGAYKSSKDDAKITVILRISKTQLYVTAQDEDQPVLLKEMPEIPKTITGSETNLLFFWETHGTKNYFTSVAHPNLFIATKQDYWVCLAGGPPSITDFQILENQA

[4] = molecular target: T2, human IL-1α; experiment: method not given
[5] = molecular target: T2, human IL-1α; experiment: Receptor Binding Assay, IgG; value beside the ABT1 clone
[6] = molecular target: T1, human IL-1β; experiment: cell-based or functional assay; remark: listed apart in the source
[7] = molecular target: T2, human IL-1α; experiment: cell-based or functional assay
[8] = molecular target: T1, human IL-1β; experiment: Receptor Binding Assay, IgG; value beside the ABT2 clone
[9] = molecular target: T1, human IL-1β; experiment: cell-based or functional assay; remark: listed apart in the source
[10] = molecular target: T2, human IL-1α; experiment: cell-based or functional assay; remark: listed apart in the source
[11] = molecular target: T1, human IL-1β; experiment: cell-based or functional assay; remark: listed apart in the source
[12] = molecular target: T2, human IL-1α; experiment: cell-based or functional assay; remark: listed apart in the source
[13] = molecular target: T2, human IL-1α; experiment: BIAcore kinetic analysis of the dAb
[14] = molecular target: T1, human IL-1β; experiment: BIAcore kinetic analysis of the dAb; remark: listed apart in the source
[15] = molecular target: T1, human IL-1β; experiment: BIAcore kinetic analysis of the dAb; remark: listed apart in the source
[16] = molecular target: T2, human IL-1α; experiment: BIAcore kinetic analysis of the dAb; remark: listed apart in the source
[17] = molecular target: T2, human IL-1α; experiment: BIAcore kinetic analysis of the dAb; remark: listed apart in the source
[18] = molecular target: T2, human IL-1α; experiment: cell-based or functional assay; remark: listed apart in the source
[19] = molecular target: T2, human IL-1α; experiment: BIAcore kinetic analysis of the dAb; remark: listed apart in the source
[20] = molecular target: T2, human IL-1α; experiment: BIAcore kinetic analysis of the dAb; remark: listed apart in the source
[21] = molecular target: T2, human IL-1α; experiment: BIAcore kinetic analysis of the dAb; remark: listed apart in the source
[22] = molecular target: T2, human IL-1α; experiment: cell-based or functional assay; remark: listed apart in the source
[23] = molecular target: T2, human IL-1α; experiment: cell-based or functional assay; remark: listed apart in the source
[24] = molecular target: T2, human IL-1α; experiment: BIAcore kinetic analysis of the dAb; remark: listed apart in the source

- MRC5 ND10 [1]: 100 nM
- MRC5 ND50 [1]: 800 nM
- Kd [2]: 930 nM
- koff [2]: 0.075 s⁻¹
- kon [2]: 81000 M⁻¹ s⁻¹
B1: ABT2-13 (other)
VH: EVQLLESGGGLVQPGGSLRLSCAASGFTFRDYVMYWARQAPGKGLEWVSRIDPMGSSTYYADSVKGRFTISRDNSKNTLYLQMNSLRAEDTAVYYCAKPEGNFDYWGQGTLVTVSS
notes: dAb, VH, to IL-1β; also called dAb ABT2-13

- Kd [3]: 32 to 42 nM
- Kd [4]: 40 nM
B2: ABT1-95-2 (other)
VL: DIQMTQSPSSLSASVGDRVTITCRASQPIHGNLRWYQQKPGKAPKLLIYSSSYLQSGVPSRFSGSGSGTDFTLTISSLQPEDFATYYCQQGYRWPVTFGQGTKVEIK
notes: dAb, Vκ, to IL-1α

- IC50 [5]: 0.083 nM
- MRC5 IL-1β [6]: 0.15 nM
- MRC5 IL-1α [7]: 0.017 nM
- IC50 [8]: 0.709 nM
- IL-1β IC50 [9]: 0.17 nM
- IL-1α IC50 [10]: 0.026 nM and 0.0178 nM
B3: ABT2-65-166/ABT1-95-A3 huIgG1/K wt (bispecific antibody, V domains shown)
VH: EVQLLESGGGLVQPGGSLRLSCAASGFTFEDYQMGWVRQAPGKGLEWVSSISAMGGRTYYADSVKGRFTISRDNSKNTLYLQMNSLRAEDTAVYYCAQNLVRLGRSRWMFDYWGQGTLVTVSS
VL: DIQMTQSPSSLSASVGDRVTITCRASKPGVRNMRWYQQKPGKAPKLLIYSVSYLEPGVPSRFSGSGSGTDFTLTISSLQPEDFATYHCLQGYRWPPTFGQGTKVEIKR
notes: hu IgG1/K wt; also called 1-95-A3 / 2-65-166

- MRC5 ND50 [11]: 2 nM
B4: ABT2-65-17 (other)
VH: B3 VH with A23V, G56N, N74D

- MRC5 ND50 [11]: 4 nM
B5: ABT2-65-166 (other)
VH: B3 VH

- IC50 [5]: 0.067 nM
- MRC5 IL-1β [6]: 0.121 nM
- MRC5 IL-1α [7]: 0.08 nM
- IC50 [8]: 0.073 nM
B6: IgG pairing ABT1-95-A2 with ABT2-65-166 (bispecific antibody, V domains shown)
VH: B3 VH
VL: B3 VL with A25I, S26L, K27Q, G29P, V30G, M33L, V51K, Y53F, L89Q, P96V
notes: IgG; also called 1-95-A2 / 2-65-166

- IC50 [5]: 0.108 nM
- MRC5 IL-1β [6]: 0.207 nM
- MRC5 IL-1α [7]: 0.019 nM
- IC50 [8]: 0.537 nM
- IL-1β IC50 [9]: 0.32 nM
B7: ABT2-65-166/ABT1-95-A6 hu IgG1/K wt (bispecific antibody, V domains shown)
VH: B3 VH
VL: B3 VL with S50A, V51K, L89K, P96V, T97Q
notes: hu IgG1/K wt; also called 1-95-A6 / 2-65-166

- MRC5 ND10 [12]: 3 nM
- MRC5 ND50 [12]: 11 nM
- Kd [13]: 1.1 nM
- koff [13]: 0.00039 s⁻¹
- kon [13]: 370000 M⁻¹ s⁻¹
B8: ABT1-96 (other)
VH: EVQLLESGGGLVQPGGSLRLSCAASGFTFNQYNMFWVRQAPGKGLEWVSVISGSGRFTYYADSVKGRFTISRDNSKNTLYLQMNSLRAEDTAVYYCAKGWWRRDPPFDYWGQGTLVTVSS
notes: dAb, VH, to IL-1α; also called dAb ABT1-96

- MRC5 ND10 [1]: 70 nM
- MRC5 ND50 [1]: 386 nM
- Kd [14]: 2800 nM
- koff [14]: 0.063 s⁻¹
- kon [14]: 23000 M⁻¹ s⁻¹
B9: ABT2-46 (other)
VL: DIQMTQSPSSLSASVGDRVTITCRASQSIIEWLSWYQQKPGKAPKLLIYRTSVLQSGVPSRFSGSGSGTDFTLTISSLQPEDFATYYCQQNEFWPFTFGQGTKVEIKR
notes: dAb, Vκ, to IL-1β; also called dAb ABT2-46

- MRC5 ND10 [1]: 100 nM
- MRC5 ND50 [1]: 770 nM
- Kd [15]: 54000 nM
- koff [15]: 0.13 s⁻¹
- kon [15]: 2500 M⁻¹ s⁻¹
B10: ABT2-42 (other)
VL: B9 VL with S28Y, I30E, E31K, S34T, K45T, T51G, V53L, N91T, F93Y
notes: dAb, Vκ, to IL-1β; also called dAb ABT2-42

- Kd [16]: 42 nM
- koff [16]: 0.28 s⁻¹
- kon [16]: 6.6e+06 M⁻¹ s⁻¹
- MRC5 ND10 [12]: 9 nM
- MRC5 ND50 [12]: 50 nM
- Kd [3]: 40 to 86 nM
B11: ABT1-122 (other)
VL: DIQMTQSPSSLSASVGDRVTITCRASQPIWTELNWYQQKPGKAPKLLIYGSSSLQSGVPSRFSGSGSGTDFTLTISSLQPEDFATYYCQQFAYFPATFGQGTKVEIKR
notes: dAb, Vκ, to IL-1α

- MRC5 ND10 [12]: 3 nM
- MRC5 ND50 [12]: 30 nM
- Kd [17]: 61 nM
- koff [17]: 0.012 s⁻¹
- kon [17]: 200000 M⁻¹ s⁻¹
- MRC5 ND50 [18]: 0.03 µM
B12: ABT1-6-23 (other)
VH: EVQLLESGGGLVQPGGSLRLSCAASGFTFVRYDMAWVRQAPGKGLEWVSSIYKSGALTSYADSVKGRFTISRDNSKNTLYLQMNSLRAEDTAVYYCAKGWASFDYWGQGTLVTVSS
notes: dAb, VH, to IL-1α; also called dAb ABT1-6-23

- Kd [19]: 110 nM
- koff [19]: 0.09 s⁻¹
- kon [19]: 820000 M⁻¹ s⁻¹
- MRC5 ND10 [12]: < 200 nM
- MRC5 ND50 [12]: 900 nM
B13: ABT1-86 (other)
VH: EVQLLESGGGLVQPGGSLRLSCAASGFTFDRYIMAWVRQAPGKGLEWVSSITPSGAATYYADSVKGRFTISRDNSKNTLYLQMNSLRAEDTAVYYCAEEPADRYSTWTFDYWGQGTLVTVSS
notes: dAb, VH, to IL-1α

- MRC5 ND10 [12]: 10 nM
- MRC5 ND50 [12]: 30 nM
- Kd [20]: 13 nM
- koff [20]: 0.027 s⁻¹
- kon [20]: 2e+06 M⁻¹ s⁻¹
B14: ABT1-98 (other)
VH: EVQLLESGGGLVQPGGSLRLSCAASGFTFDGYIMSWVRQAPGKGLEWVSTISPLGSVTYYADSVKGRFTISRDNSKNTLYLQMNSLRAEDTAVYYCAKKGPWFDYWGQGTLVTVSS
notes: dAb, VH, to IL-1α; also called dAb ABT1-98

- MRC5 ND10 [12]: 150 nM
- MRC5 ND50 [12]: 700 nM
- Kd [4]: 200 nM
- Kd [21]: 45 nM
- koff [21]: 0.022 s⁻¹
- kon [21]: 490000 M⁻¹ s⁻¹
B15: ABT1-95 (other)
VL: DIQMTQSPSSLSASVGDRVTITCRASQPIHGNLRWYQQKPGKAPKLLIYNISNLQSGVPSRFSGSGSGTDFTLTISSLQPEDFATYYCQQGYRWPVTFGQGTKVEIKR
notes: dAb, Vκ, to IL-1α; also called dAb ABT1-95

- IC50 [5]: 0.54 nM
- MRC5 IL-1β [6]: 0.042 nM
- MRC5 IL-1α [7]: 8 nM
- IC50 [8]: 0.071 nM
B16: ABT2-108-538x/ABT1-95-15 huIgG1/K wt (bispecific antibody, V domains shown)
VH: EVQLLESGGGLVQPGGSLRLSCAASGFTFADEGMMWVRQAPGKGLEWVSRITYSGKNTYYADSVKGRFTISRDNSKNTLYLQMNSLRAEDTAVYYCAKYTGRILGHHLFDYWGQGTLVTVSS
VL: B3 VL with K27Q, G29I, M33L, V51S, L89Q, P96V
notes: hu IgG1/K wt

- Kd [3]: 20 to 42 nM
- Kd [4]: 40 nM
B17: ABT1-95-1 (other)
chain: B15 VL with Y87H

- MRC-5 IL-1a inhibition assay EC50 [22]: 5.07 nM
- IL-1β IC50 [9]: 0.04 nM
- IL-1α IC50 [10]: 5 nM
B18: ABT2-108-620x/ABT1-95-15 huIgG1/K wt (bispecific antibody, V domains shown)
VH: B16 VH with D31E, G33S, M34W, T52G, Y53Q, S54D, A61R, D62E, S63D, L104M
VL: B3 VL with K27Q, G29I, M33L, V51S, L89Q, P96V

- MRC5 ND10 [12]: 10 nM
- MRC5 ND50 [12]: 70 nM
- MRC5 ND50 [23]: 70 nM
- Kd [24]: 300 nM
- koff [24]: 0.0039 s⁻¹
- kon [24]: 13000 M⁻¹ s⁻¹
B19: ABT1-141 (other)
VL: DIQMTQSPSSLSASVGDRVTITCRASQWIQKQLAWYQQKPGKAPKLLIYSSSYLQSGVPSRFSGSGSGTDFTLTISSLQPEDFATYYCQQHLRVPFTFGQGTKVEIKR
notes: dAb, Vκ, to IL-1α; also called dAb ABT1-141
